Data taken from PMC5063977 (The Journal of Biological Chemistry, 2016).

Key:
[1] = biological target: RAMP1-CLR heterodimer expressed in S. cerevisiae (human) (UniProt Q16602)
[2] = biological target: RAMP2-CLR heterodimer expressed in S. cerevisiae (human) (UniProt Q16602)
[3] = biological target: RAMP3-CLR heterodimer expressed in S. cerevisiae (human) (UniProt Q16602)
[4] = biological target: RAMP1-CLR complex expressed in HEK-293 cells (human) (UniProt Q16602)
[5] = biological target: RAMP2-CLR complex expressed in HEK-293 cells (human) (UniProt Q16602)
[6] = biological target: RAMP3-CLR complex expressed in HEK-293 cells (human) (UniProt Q16602)
[7] = biological target: RAMP1-CLR complex expressed in HEK-293 cells (human) (UniProt Q16602); remark: listed apart in the source
[8] = biological target: RAMP2-CLR complex expressed in HEK-293 cells (human) (UniProt Q16602); remark: listed apart in the source
[9] = biological target: RAMP3-CLR complex expressed in HEK-293 cells (human) (UniProt Q16602); remark: listed apart in the source
[10] = biological target: RAMP1-CLR complex expressed in HEK-293S cells (human) (UniProt Q16602)
[11] = biological target: RAMP2-CLR complex expressed in HEK-293S cells (human) (UniProt Q16602)
[12] = biological target: RAMP3-CLR complex expressed in HEK-293S cells (human) (UniProt Q16602)
[13] = biological target: RAMP1-CLR complex expressed in HEK-293 cells (human) (UniProt Q16602); remark: listed apart in the source
[14] = biological target: RAMP1-CLR complex expressed in HEK-293S cells (human) (UniProt Q16602); remark: listed apart in the source
[15] = biological target: RAMP2-CLR complex expressed in HEK-293 cells (human) (UniProt Q16602); remark: listed apart in the source
[16] = biological target: RAMP2-CLR complex expressed in HEK-293S cells (human) (UniProt Q16602); remark: listed apart in the source
[17] = biological target: RAMP3-CLR complex expressed in HEK-293 cells (human) (UniProt Q16602); remark: listed apart in the source
[18] = biological target: RAMP3-CLR complex expressed in HEK-293S cells (human) (UniProt Q16602); remark: listed apart in the source
[19] = tested on: RAMP-CLR complexes (RAMP1, RAMP2, RAMP3); assay: (Ca^2+)i mobilization with inhibitor pretreatment, HEK-293 cells, all RAMP-CLR complexes; type: cell-based, human; details: HEK-293, any RAMP-CLR complex
Method: FIGURE 8. CLR in combination with each RAMP generates receptors that mobilize (Ca^2+)i release when expressed in HEK-293 cells. (Ca^2+)i mobilization was determined from HEK-293 cells transiently transfected with CLR and RAMP1 (n = 5) (A), RAMP2 (n = 5) (B), and RAMP3 (n = 5) (C). […] Data are expressed as percentage of the maximal (Ca^2+)i release as determined using 10 μM ionomycin. To determine the contribution made by different G proteins to the (Ca^2+)i response, cells were preincubated with either PTX (to inhibit Gαi) or YM-254890 (a selective Gαq inhibitor). All values are means ± S.E. of n individual data sets.
HEK-293 cells, provided by Dr. Jügen Müller (University of Aston), were cultured in DMEM supplemented with 10% heat-inactivated FBS and kept at 37 °C in a humidified 95% air, 5% CO2 incubator. HEK-293S cells (a gift from AstraZeneca) were cultured in DMEM supplemented with 8% heat-inactivated FBS and kept at 37 °C in a humidified 95% air, 5% CO2 incubator. HEK-293 cells were transfected with FuGENE 6 (Roche Applied Science) in accordance with the manufacturer's instructions using a 1:3 (w:v) DNA:FuGENE ratio and a 1:1 ratio of RAMP to CLR. HEK-293S cells were seeded into 96-well poly-D-lysine-coated plates at a density of 15,000 cells/well (determined using a Countess^TM cell counter, Invitrogen) 1 day prior to transfection. HEK-293S cells were transiently transfected as described previously ([38]) using a 1:1 ratio of RAMP to CLR. The transfected cell lines were grown for 24–48 h prior to assaying.
Transfected HEK-293 cells were grown to confluence in black, clear bottomed, 96-well plates. […] Ligands were added robotically using a Mithras LB 940 multimode microplate reader in the range of 10 pM to 1 μM, and fluorescence was determined immediately post-injection with an excitation wavelength set to 485 nm and an emission wavelength set to 535 nm. […] Peak magnitude was calculated using five-point smoothing followed by correction against background fluorescence. […]

RAMP2-CLR complex expressed in HEK-293 cells (human), sequence (Q16602 23-461, chain 1 of 2): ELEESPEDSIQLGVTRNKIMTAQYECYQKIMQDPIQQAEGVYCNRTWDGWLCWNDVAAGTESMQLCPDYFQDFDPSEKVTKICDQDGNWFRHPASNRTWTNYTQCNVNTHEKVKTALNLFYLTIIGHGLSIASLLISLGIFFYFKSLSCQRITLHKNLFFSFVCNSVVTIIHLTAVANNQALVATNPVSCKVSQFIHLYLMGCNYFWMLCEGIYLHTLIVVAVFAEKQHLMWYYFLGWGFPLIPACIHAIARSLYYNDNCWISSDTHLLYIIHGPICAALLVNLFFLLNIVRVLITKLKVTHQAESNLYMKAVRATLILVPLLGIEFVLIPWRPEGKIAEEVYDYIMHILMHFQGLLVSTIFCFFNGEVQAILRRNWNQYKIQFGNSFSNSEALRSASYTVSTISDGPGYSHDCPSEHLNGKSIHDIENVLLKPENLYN
RAMP2-CLR complex expressed in HEK-293 cells (human), sequence (O60895 43-175, chain 2 of 2, further chain): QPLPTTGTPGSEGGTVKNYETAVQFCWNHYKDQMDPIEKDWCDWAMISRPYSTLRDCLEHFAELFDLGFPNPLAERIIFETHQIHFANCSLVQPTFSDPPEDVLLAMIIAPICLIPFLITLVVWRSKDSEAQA
RAMP1-CLR complex expressed in HEK-293 cells (human), sequence (Q16602 23-461, chain 1 of 2): as the sequence (Q16602 23-461, chain 1 of 2) above
RAMP1-CLR complex expressed in HEK-293 cells (human), sequence (O60894 27-148, chain 2 of 2, further chain): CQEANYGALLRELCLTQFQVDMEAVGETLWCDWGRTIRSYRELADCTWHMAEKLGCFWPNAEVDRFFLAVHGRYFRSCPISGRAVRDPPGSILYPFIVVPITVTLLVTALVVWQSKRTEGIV
RAMP1-CLR complex expressed in HEK-293S cells (human), sequence (Q16602 23-461, chain 1 of 2): as the sequence (Q16602 23-461, chain 1 of 2) above
RAMP1-CLR complex expressed in HEK-293S cells (human), sequence (O60894 27-148, chain 2 of 2, further chain): as the sequence (O60894 27-148, chain 2 of 2, further chain) above
RAMP3-CLR complex expressed in HEK-293 cells (human), sequence (Q16602 23-461, chain 1 of 2): as the sequence (Q16602 23-461, chain 1 of 2) above
RAMP3-CLR complex expressed in HEK-293 cells (human), sequence (O60896 24-148, chain 2 of 2, further chain): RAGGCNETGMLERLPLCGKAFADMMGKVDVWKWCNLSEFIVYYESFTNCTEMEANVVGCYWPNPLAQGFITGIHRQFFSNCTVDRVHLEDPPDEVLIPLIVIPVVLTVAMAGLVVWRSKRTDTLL
RAMP2-CLR heterodimer expressed in S. cerevisiae (human), sequence (Q16602 23-461, chain 1 of 2): as the sequence (Q16602 23-461, chain 1 of 2) above
RAMP2-CLR heterodimer expressed in S. cerevisiae (human), sequence (O60895 43-175, chain 2 of 2, further chain): as the sequence (O60895 43-175, chain 2 of 2, further chain) above
RAMP1-CLR heterodimer expressed in S. cerevisiae (human), sequence (Q16602 23-461, chain 1 of 2): as the sequence (Q16602 23-461, chain 1 of 2) above
RAMP1-CLR heterodimer expressed in S. cerevisiae (human), sequence (O60894 27-148, chain 2 of 2, further chain): as the sequence (O60894 27-148, chain 2 of 2, further chain) above
RAMP3-CLR complex expressed in HEK-293S cells (human), sequence (Q16602 23-461, chain 1 of 2): as the sequence (Q16602 23-461, chain 1 of 2) above
RAMP3-CLR complex expressed in HEK-293S cells (human), sequence (O60896 24-148, chain 2 of 2, further chain): as the sequence (O60896 24-148, chain 2 of 2, further chain) above
RAMP2-CLR complex expressed in HEK-293S cells (human), sequence (Q16602 23-461, chain 1 of 2): as the sequence (Q16602 23-461, chain 1 of 2) above
RAMP2-CLR complex expressed in HEK-293S cells (human), sequence (O60895 43-175, chain 2 of 2, further chain): as the sequence (O60895 43-175, chain 2 of 2, further chain) above
RAMP3-CLR heterodimer expressed in S. cerevisiae (human), sequence (Q16602 23-461, chain 1 of 2): as the sequence (Q16602 23-461, chain 1 of 2) above
RAMP3-CLR heterodimer expressed in S. cerevisiae (human), sequence (O60896 24-148, chain 2 of 2, further chain): as the sequence (O60896 24-148, chain 2 of 2, further chain) above

In the case of hAM (peptide), the pEC50, yeast growth reporter, GPA1/Gαi chimera strain [1] is reported as 8.38 -log10, the pEC50, yeast growth reporter, GPA1/Gαq chimera strain [1] is reported as 7.26 -log10 and the pEC50, yeast growth reporter, GPA1/Gαs chimera strain [1] is reported as 8.8 -log10. The pKa (operational model of agonism), yeast growth reporter, GPA1/Gαi chimera strain [1] was 8.2 -log10, the pKa (operational model of agonism), yeast growth reporter, GPA1/Gαq chimera strain [1] was 7.19 -log10 and the pKa (operational model of agonism), yeast growth reporter, GPA1/Gαs chimera strain [1] was 8.81 -log10. For the same substance, the pEC50, yeast growth reporter, GPA1/Gαi chimera strain [2] was 7.91 -log10, the pEC50, yeast growth reporter, GPA1/Gαq chimera strain [2] was 7.93 -log10 and the pEC50, yeast growth reporter, GPA1/Gαs chimera strain [2] was 8.82 -log10. The pKa (operational model of agonism), yeast growth reporter, GPA1/Gαi chimera strain [2] was 7.75 -log10, the pKa (operational model of agonism), yeast growth reporter, GPA1/Gαq chimera strain [2] was 7.78 -log10 and the pKa (operational model of agonism), yeast growth reporter, GPA1/Gαs chimera strain [2] was 8.77 -log10. The pEC50, yeast growth reporter, GPA1/Gαi chimera strain [3] was 7.89 -log10, the pEC50, yeast growth reporter, GPA1/Gαq chimera strain [3] was 7.83 -log10 and the pEC50, yeast growth reporter, GPA1/Gαs chimera strain [3] was 8.15 -log10. For the same substance, the pKa (operational model of agonism), yeast growth reporter, GPA1/Gαi chimera strain [3] was 8 -log10, the pKa (operational model of agonism), yeast growth reporter, GPA1/Gαq chimera strain [3] was 7.71 -log10 and the pKa (operational model of agonism), yeast growth reporter, GPA1/Gαs chimera strain [3] was 8.1 -log10. For the same substance, the pEC50, cAMP accumulation in HEK-293 cells [4] was 7.92 -log10, the pKa (operational model of agonism), cAMP accumulation in HEK-293 cells [4] was 7.64 -log10 and the pEC50, cAMP accumulation in HEK-293 cells [5] was 10.3 -log10. The pKa (operational model of agonism), cAMP accumulation in HEK-293 cells [5] was 9.95 -log10, the pEC50, cAMP accumulation in HEK-293 cells [6] was 8.86 -log10 and the pKa (operational model of agonism), cAMP accumulation in HEK-293 cells [6] was 8.5 -log10. The pEC50, cAMP accumulation in HEK-293 cells, with PTX pretreatment [7] was 8.14 -log10, the pEC50, cAMP accumulation in HEK-293 cells, without PTX [7] was 7.93 -log10 and the pKa (operational model of agonism), cAMP accumulation in HEK-293 cells, with PTX pretreatment [7] was 7.66 -log10. The pKa (operational model of agonism), cAMP accumulation in HEK-293 cells, without PTX [7] was 7.67 -log10, the pEC50, cAMP accumulation in HEK-293 cells, with PTX pretreatment [8] was 10.2 -log10 and the pEC50, cAMP accumulation in HEK-293 cells, without PTX [8] was 10.3 -log10. For the same substance, the pKa (operational model of agonism), cAMP accumulation in HEK-293 cells, with PTX pretreatment [8] was 9.83 -log10, the pKa (operational model of agonism), cAMP accumulation in HEK-293 cells, without PTX [8] was 10 -log10 and the pEC50, cAMP accumulation in HEK-293 cells, with PTX pretreatment [9] was 9.1 -log10. For the same substance, the pEC50, cAMP accumulation in HEK-293 cells, without PTX [9] was 8.98 -log10, the pKa (operational model of agonism), cAMP accumulation in HEK-293 cells, with PTX pretreatment [9] was 8.94 -log10 and the pKa (operational model of agonism), cAMP accumulation in HEK-293 cells, without PTX [9] was 8.83 -log10. The pEC50, cAMP accumulation in HEK-293S cells, with PTX pretreatment [10] was 8.03 -log10, the pEC50, cAMP accumulation in HEK-293S cells, without PTX [10] was 8.13 -log10 and the pEC50, cAMP accumulation in HEK-293S cells, with PTX pretreatment [11] was 9.38 -log10. For the same substance, the pEC50, cAMP accumulation in HEK-293S cells, without PTX [11] was 9.39 -log10, the pEC50, cAMP accumulation in HEK-293S cells, with PTX pretreatment [12] was 9.49 -log10 and the pEC50, cAMP accumulation in HEK-293S cells, without PTX [12] was 9.63 -log10. The pEC50, (Ca^2+)i mobilization in HEK-293 cells [13] was 7.9 -log10, the pKa (operational model of agonism), (Ca^2+)i mobilization in HEK-293 cells [13] was 7.69 -log10 and the pEC50, (Ca^2+)i mobilization in HEK-293S cells [14] was 7.63 -log10. For the same substance, the pKa (operational model of agonism), (Ca^2+)i mobilization in HEK-293S cells [14] was 7.42 -log10, the pEC50, (Ca^2+)i mobilization in HEK-293 cells [15] was 7.86 -log10 and the pKa (operational model of agonism), (Ca^2+)i mobilization in HEK-293 cells [15] was 7.45 -log10. For the same substance, the pEC50, (Ca^2+)i mobilization in HEK-293S cells [16] was 7.68 -log10, the pKa (operational model of agonism), (Ca^2+)i mobilization in HEK-293S cells [16] was 7.39 -log10 and the pEC50, (Ca^2+)i mobilization in HEK-293 cells [17] was 8.12 -log10. For the same substance, the pKa (operational model of agonism), (Ca^2+)i mobilization in HEK-293 cells [17] was 7.76 -log10, the pEC50, (Ca^2+)i mobilization in HEK-293S cells [18] was 8.02 -log10 and the pKa (operational model of agonism), (Ca^2+)i mobilization in HEK-293S cells [18] was 8.56 -log10.

In the case of pertussis toxin [PTX], the “effect of PTX on calcium released in response to the three ligands” value [19] is reported as “no effect”.
